# Article PMC5467530
# Substrate: O=c1[nH]cnc2c([C@@H]3O[C@H](COP(=O)(O)O)[C@@H](O)[C@H]3O)n[nH]c12
# Assay: pyruvate kinase / lactate dehydrogenase coupled assay, NADH oxidation by UV
# Type: biochemical, Streptomyces kaniharaensis
# Conditions: 2.5 mM L-aspartate, 0.125 mM GTP
protein,measurement,value
ForA (Streptomyces kaniharaensis) (protein) MLKAIVGLNWGDEGKGRMVDNLSAEADYTVRYHGGSNAGHTIHTDQGKFKLHSLPSSVLHPTVTGVLGPGMTVDVEGFLAEFEALREHGVTADRLLVADAASVCFPFHRDLDGAEEERLSDGRYGSTRRGISPAYGDRVMKKTLLVRELFDRENLPARLAAVLDWANERIVRIYGGAPLSLDEVTRWAADVAARLEPHVVDATALLGKALDDGATVIAEGQLGALKDLYYGIYPFTTSSTCLAGHAPVGIGVPWARVDRTIGVTKAFSSCVGAGPFVTEFDEERADRLRRQWGEYGSTTNRPRRLGAFDAVATRYGVRVQGADEVAITNLDQLSGTGELDLCVAYERAGRTVREFSPRPAELAASTPVHETLSGWDEDISGVRTYEQLPAGAREYVEAIQELLGVPVRHVSVGSHRDALIEIK,Km,74 ± 25 µM
same,kcat,0.3 ± 0.033 s⁻¹
